{"source": "paper PMC2832003", "key": {"[1]": {"target": "T1, activin type IIB receptor (ActRIIB), coated on ELISA plates, Q13705"}, "[2]": {"target": "T1, activin type IIB receptor (ActRIIB), …", "test": "ELISA; competition: quantified conditioned media compete with biotinylated inhibin A for ActRIIB coated on the plate"}, "[3]": {"target": "T1, activin type IIB receptor (ActRIIB), …", "test": "ELISA; competition: quantified conditioned media compete with biotinylated activin A for ActRIIB coated on the plate"}, "[4]": {"target": "T1, activin type IIB receptor (ActRIIB), …", "test": "ELISA; 50 ng ActRIIB dried in each well (20 mM HEPES pH 7.4); biotinylated inhibin A or activin A in TBST pH 7.4, 1.5 h, room temperature; streptavidin-HRP; standard binding curve"}}, "data": [{"binder": "α^HPWR−/βA mutant inhibin A, P05111 233-366; P08476 311-426 (complex) chain 1: STPLMSWPWSPSALRLLQRPPEEPAAHANCHRVALNISFQELGWERWIVYPPSFIFHYCHGGCGLHIYSLLPGAQPCCAALPGTMRPLHVRTTSDGGYSFKYETVPNLLTQHCACI chain 2: GLECDGKVNICCKKQFFVSFKDIGWNDWIIAPSGYHANYCEGECPSHIAGTSGSSLSFHSTVINHYRMRGHSPFANLKSCCVPTKLRPMSMLYYDDGQNIIKKDIQNMIVEECGCS", "values": [{"measurement": "IC50 of antagonism of activin A (0.4 nM) in the FSHβ-luciferase assay in LβT2 cells, with transfected betaglycan", "setting": "[1]", "value": 0.27, "unit": "nM"}, {"measurement": "IC50 of antagonism of activin A (0.4 nM) in the FSHβ-luciferase assay in LβT2 cells, without betaglycan", "setting": "[1]", "value": 0.31, "unit": "nM"}, {"measurement": "IC50", "setting": "[2]", "value": 2.96, "unit": "nM"}]}, {"binder": "α^Hext−/βA mutant inhibin A, P05111 233-366; P08476 311-426 (complex, here or on the partner: disulfide-linked heterodimer; alpha-subunit N-glycosylated (CHO-expressed)) chain 1: STPLMANCHRVALNISFQELGWERWIVYPPSFIFHYCHGGCGLHIPPNLSLPVPGAPPTPAQPYSLLPGAQPCCAALPGTMRPLHVRTTSDGGYSFKYETVPNLLTQHCACI chain 2: GLECDGKVNICCKKQFFVSFKDIGWNDWIIAPSGYHANYCEGECPSHIAGTSGSSLSFHSTVINHYRMRGHSPFANLKSCCVPTKLRPMSMLYYDDGQNIIKKDIQNMIVEECGCS", "values": [{"measurement": "IC50", "setting": "[2]", "value": 128, "unit": "nM"}]}, {"binder": "wild type human inhibin A (α^Hwt/βA), P05111 233-366; P08476 311-426 (complex) chain 1: STPLMSWPWSPSALRLLQRPPEEPAAHANCHRVALNISFQELGWERWIVYPPSFIFHYCHGGCGLHIPPNLSLPVPGAPPTPAQPYSLLPGAQPCCAALPGTMRPLHVRTTSDGGYSFKYETVPNLLTQHCACI chain 2: GLECDGKVNICCKKQFFVSFKDIGWNDWIIAPSGYHANYCEGECPSHIAGTSGSSLSFHSTVINHYRMRGHSPFANLKSCCVPTKLRPMSMLYYDDGQNIIKKDIQNMIVEECGCS", "values": [{"measurement": "IC50", "setting": "[2]", "value": 9.01, "unit": "nM"}]}, {"binder": "wild type chicken inhibin A (α^Chwt/βA), P43031 217-329; P08476 311-426 (complex) chain 1: SAVPWSPAALSLLQRPSEDVAAHTNCRRASLNISFEELGWDNWIVHPSSFVFHYCHGNCAEGHGLSHRLGVQLCCAALPGTMRSLRVRTTSDGGYSFKYETVPNILAQDCTCV chain 2: GLECDGKVNICCKKQFFVSFKDIGWNDWIIAPSGYHANYCEGECPSHIAGTSGSSLSFHSTVINHYRMRGHSPFANLKSCCVPTKLRPMSMLYYDDGQNIIKKDIQNMIVEECGCS", "values": [{"measurement": "IC50", "setting": "[2]", "value": 5.55, "unit": "nM"}]}, {"binder": "wild type human activin A (βA/βA dimer), P08476 311-426 (complex) GLECDGKVNICCKKQFFVSFKDIGWNDWIIAPSGYHANYCEGECPSHIAGTSGSSLSFHSTVINHYRMRGHSPFANLKSCCVPTKLRPMSMLYYDDGQNIIKKDIQNMIVEECGCS", "values": [{"measurement": "IC50", "setting": "[3]", "value": 4.14, "unit": "nM"}]}, {"binder": "biotinylated human inhibin A, P05111 233-366; P08476 311-426 (complex, here or on the partner: biotin (EZ-link Micro Sulfo-NHS-LC-biotinylation Kit), sites not stated | biotin (EZ-link Micro Sulfo-NHS-LC-biotinylation Kit), sites not stated) chain 1: STPLMSWPWSPSALRLLQRPPEEPAAHANCHRVALNISFQELGWERWIVYPPSFIFHYCHGGCGLHIPPNLSLPVPGAPPTPAQPYSLLPGAQPCCAALPGTMRPLHVRTTSDGGYSFKYETVPNLLTQHCACI chain 2: GLECDGKVNICCKKQFFVSFKDIGWNDWIIAPSGYHANYCEGECPSHIAGTSGSSLSFHSTVINHYRMRGHSPFANLKSCCVPTKLRPMSMLYYDDGQNIIKKDIQNMIVEECGCS", "values": [{"measurement": "EC50", "setting": "[4]", "value": 2.73, "unit": "nM"}]}, {"binder": "biotinylated human activin A, P08476 311-426 (complex, here or on the partner: biotin (EZ-link Micro Sulfo-NHS-LC-biotinylation Kit), sites not stated) GLECDGKVNICCKKQFFVSFKDIGWNDWIIAPSGYHANYCEGECPSHIAGTSGSSLSFHSTVINHYRMRGHSPFANLKSCCVPTKLRPMSMLYYDDGQNIIKKDIQNMIVEECGCS", "values": [{"measurement": "EC50", "setting": "[4]", "value": 1.1, "unit": "nM"}]}]}
